# Laboratory results taken from US20110091994A1, “Methods for Screening Compounds for Treating and/or Preventing an Hepatitis C Virus Infection” (priority 2008, published 2011).
# B1: TXNDC11 (protein, UniProt Q6PKC3 1-985, looked up)
# Thioredoxin domain-containing …: MSECGGRGGGSSSSEDAEDEGGGGGGPAGSDCLSSSPTLATASSAGRLRRGLRGAFLMARQRPELLCGAVALGCALLLALKFTCSRAKDVIIPAKPPVSFFSLRSPVLDLFQGQLDYAEYVRRDSEVVLLFFYAPWCGQSIAARAEIEQAASRLSDQVLFVAINCWWNQGKCRKQKHFFYFPVIYLYHRSFGPIEYKGPMSAVYIEKFVRRVMKPLLYIPSQSELLDFLSNYEPGVLGYFEFSGSPQPPGYLTFFTSALHSLKKALESTSSPRALVSFTGEWHLETKIYVLDYLGTVRFGVITNKHLAKLVSLVHSGSVYLHRHFNTSLVFPREVLNYTAENICKWALENQETLFRWLRPHGGKSLLLNNELKKGPALFLFIPFNPLAESHPLIDEITEVALEYNNCHGDQVVERLLQHLRRVDAPVLESLALEVPAQLPDPPTITASPCCNTVVLPQWHSFSRTHNVCELCVNQTSGGMKPSSVSVPQCSFFEMAAALDSFYLKEQTFYHVASDSIECSNFLTSYSPFSYYTACCRTISRGVSGFIDSEQGVFEAPTVAFSSLEKKCEVDAPSSVPHIEENRYLFPEVDMTSTNFTGLSCRTNKTLNIYLLDSNLFWLYAERLGAPSSTQVKEFAAIVDVKEESHYILDPKQALMKLTLESFIQNFSVLYSPLKRHLIGSGSAQFPSQHLITEVTTDTFWEVVLQKQDVLLLYYAPWCGFCPSLNHIFIQLARNLPMDTFTVARIDVSQNDLPWEFMVDRLPTVLFFPCNRKDLSVKYPEDVPITLPNLLRFILHHSDPASSPQNVANSPTKECLQSEAVLQRGHISHLEREIQKLRAEISSLQRAQVQVESQLSSARRDEHRLRQQQRALEEQHSLLHAHSEQLQALYEQKTRELQELARKLQELADASENLLTENTWLKILVATMERKLEGRDGAESLAAQREVHPKQPEPSATPQLPGSSPPPANVSATLVSERNKENRTD
# Assays:
# [1] = biological target: T1, HCV ORFs (Gal4-DB fusions) (Hepatitis C virus genotype 1b, UniProt Q9WMX2); type: binding, HCV genotype 1b, isolate con1; settings: human protein as prey
# T1 construct: expressed in transfected cells; host or cells: Saccharomyces cerevisiae MAV203 (IMAP1) / AH109 (IMAP2)
# [2] = tested on: HCV ORFs (Gal4-DB fusions); type: binding, HCV genotype 1b, isolate con1; settings: human protein listed by gene symbol; the value names the HCV protein it interacts with
# [3] = biological target: T2, GST-tagged viral proteins (Hepatitis C virus genotype 1b, UniProt Q9WMX2); test: Validation by co-affinity purification (CoAP); type: binding, HCV genotype 1b, isolate con1; design: key: +: IMAP validation; −: not validated; NA: non assayable due to default of protein expression or to cellular protein directly interacting with GST; settings: interaction with HCV protein NS5A
# T2 construct: expressed in transfected cells; host or cells: HEK-293T
# T2 sequence (Q9WMX2 1973-2419): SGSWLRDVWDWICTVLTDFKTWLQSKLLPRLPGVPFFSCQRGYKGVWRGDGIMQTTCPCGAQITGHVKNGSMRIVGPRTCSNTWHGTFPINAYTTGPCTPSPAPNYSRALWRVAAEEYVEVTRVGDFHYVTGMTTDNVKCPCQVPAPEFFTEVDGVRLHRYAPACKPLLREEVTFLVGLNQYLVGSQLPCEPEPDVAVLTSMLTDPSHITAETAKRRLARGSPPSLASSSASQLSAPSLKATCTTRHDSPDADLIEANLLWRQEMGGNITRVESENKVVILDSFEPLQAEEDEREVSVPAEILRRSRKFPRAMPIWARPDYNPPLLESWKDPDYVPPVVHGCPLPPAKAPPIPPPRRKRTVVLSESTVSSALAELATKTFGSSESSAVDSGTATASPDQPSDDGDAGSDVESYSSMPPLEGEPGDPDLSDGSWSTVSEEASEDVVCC
# How it was run: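 HEK-293T cells were co-transfected with N-terminal GST-tagged HCV bait and 3xFLAG-tagged human prey ORFs, with GST alone as control. Two days later, lysates (0.5% NP-40, pH 8.0) were pulled down on glutathione beads. Preys were detected by anti-FLAG immunoblot after SDS-PAGE.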
# HCV proteins = biological target: T3, HCV proteins (Hepatitis C virus genotype 1b, UniProt Q9WMX2); test: Validation by Y2H pairwise matrices; type: binding; settings: validation of interaction with HCV protein NS3;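 also: yeast two-hybrid pairwise tests of interactions first found in Y2H screens of HCV bait proteins against human cDNA libraries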
# T3 construct: expressed in transfected cells
# T3 sequence (Q9WMX2 1027-1657): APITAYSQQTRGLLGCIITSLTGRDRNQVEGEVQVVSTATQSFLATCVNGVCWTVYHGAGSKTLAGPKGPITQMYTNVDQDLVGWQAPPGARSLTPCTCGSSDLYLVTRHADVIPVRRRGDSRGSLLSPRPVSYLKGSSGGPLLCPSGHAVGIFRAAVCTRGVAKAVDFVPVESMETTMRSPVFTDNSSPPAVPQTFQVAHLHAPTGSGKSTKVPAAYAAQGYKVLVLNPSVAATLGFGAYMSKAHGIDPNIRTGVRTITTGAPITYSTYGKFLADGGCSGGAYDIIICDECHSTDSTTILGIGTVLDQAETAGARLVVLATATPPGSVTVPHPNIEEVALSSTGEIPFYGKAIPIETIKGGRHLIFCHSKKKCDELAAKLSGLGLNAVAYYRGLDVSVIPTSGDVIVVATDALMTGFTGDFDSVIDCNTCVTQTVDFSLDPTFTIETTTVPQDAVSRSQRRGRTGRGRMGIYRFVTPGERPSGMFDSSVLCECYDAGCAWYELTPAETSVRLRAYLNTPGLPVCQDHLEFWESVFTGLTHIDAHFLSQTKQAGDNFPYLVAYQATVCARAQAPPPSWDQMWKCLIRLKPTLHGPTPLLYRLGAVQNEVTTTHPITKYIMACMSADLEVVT
# 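For IMAP Y2H IMAP1 (number of IST) in this document: yeast two-hybrid screens using HCV genotype 1b proteins fused to Gal4-DB as baits against prey cDNA libraries from human spleen and foetal brain, IMAP1 via transformation and IMAP2 via mating.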
# 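For IMAP Y2H IMAP2 (number of IST) in this document: yeast two-hybrid screens using HCV genotype 1b proteins fused to Gal4-DB as baits against prey cDNA libraries from human spleen and foetal brain, IMAP1 via transformation and IMAP2 via mating.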
# 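For Interaction with viral protein in this document: yeast two-hybrid screens using HCV genotype 1b proteins fused to Gal4-DB as baits against prey cDNA libraries from human spleen and foetal brain, IMAP1 via transformation and IMAP2 via mating.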
molecule,measurement,setting,value
B1,IMAP Y2H IMAP1 (number of IST),[1]; HCV protein NS3 as bait,2
same,IMAP Y2H IMAP2 (number of IST),[1]; HCV protein NS5A as bait,1
same,Interaction with viral protein,[2],NS3
same,CoAP,[3],+
same,Y2H matrices,HCV proteins,+
